B1: pro-ALP (yeast vacuolar alkaline phosphatase, pro-form) (natural protein, S. cerevisiae, UniProt P11491 1-566, looked up)
chain: MMTHTLPSEQTRLVPGSDSSSRPKKRRISKRSKIIVSTVVCIGLLLVLVQLAFPSSFALRSASHKKKNVIFFVTDGMGPASLSMARSFNQHVNDLPIDDILTLDEHFIGSSRTRSSDSLVTDSAAGATAFACALKSYNGAIGVDPHHRPCGTVLEAAKLAGYLTGLVVTTRITDATPASFSSHVDYRWQEDLIATHQLGEYPLGRVVDLLMGGGRSHFYPQGEKASPYGHHGARKDGRDLIDEAQSNGWQYVGDRKNFDSLLKSHGENVTLPFLGLFADNDIPFEIDRDEKEYPSLKEQVKVALGALEKASNEDKDSNGFFLMVEGSRIDHAGHQNDPASQVREVLAFDEAFQYVLEFAENSDTETVLVSTSDHETGGLVTSRQVTASYPQYVWYPQVLANATHSGEFLKRKLVDFVHEHKGASSKIENFIKHEILEKDLGIYDYTDSDLETLIHLDDNANAIQDKLNDMVSFRAQIGWTTHGHSAVDVNIYAYANKKATWSYVLNNLQGNHENTEVGQFLENFLELNLNEVTDLIRDTKHTSDFDATEIASEVQHYDEYYHELTN
B2: Δ79-82ALP (dimerization mutant of pro-ALP) (natural protein, S. cerevisiae, UniProt P11491 1-566, looked up)
chain: MMTHTLPSEQTRLVPGSDSSSRPKKRRISKRSKIIVSTVVCIGLLLVLVQLAFPSSFALRSASHKKKNVIFFVTDGMGSMARSFNQHVNDLPIDDILTLDEHFIGSSRTRSSDSLVTDSAAGATAFACALKSYNGAIGVDPHHRPCGTVLEAAKLAGYLTGLVVTTRITDATPASFSSHVDYRWQEDLIATHQLGEYPLGRVVDLLMGGGRSHFYPQGEKASPYGHHGARKDGRDLIDEAQSNGWQYVGDRKNFDSLLKSHGENVTLPFLGLFADNDIPFEIDRDEKEYPSLKEQVKVALGALEKASNEDKDSNGFFLMVEGSRIDHAGHQNDPASQVREVLAFDEAFQYVLEFAENSDTETVLVSTSDHETGGLVTSRQVTASYPQYVWYPQVLANATHSGEFLKRKLVDFVHEHKGASSKIENFIKHEILEKDLGIYDYTDSDLETLIHLDDNANAIQDKLNDMVSFRAQIGWTTHGHSAVDVNIYAYANKKATWSYVLNNLQGNHENTEVGQFLENFLELNLNEVTDLIRDTKHTSDFDATEIASEVQHYDEYYHELTN

Tests used:
Assay in all cases: co-IP
[1] = biological target: Δ79-82ALP (dimerization mutant of pro-ALP) (S. cerevisiae) (UniProt P11491)
[2] = biological target: pro-ALP (yeast vacuolar alkaline phosphatase, pro-form) (S. cerevisiae) (UniProt P11491)
[3] = biological target: the molecule itself

Molecule | percent of total Erv26p recovered in the IP [1] | percent of total Erv26p recovered in the IP [2] | ratio of untagged to HA-tagged pro-ALP immunoprecipitated [3]
Erv26p (receptor) | 1% | 2.5% | 
B1 |  |  | 0.38
B2 |  |  | 0.05
